Reference: PMC7188994

Target: SspA C314S mutant from Vibrio cyclitrophicus FF75 (Vibrio cyclitrophicus FF75)
Experiment: crystal structure; SspA C314S with cysteine substrate and PLP; hanging drop at 14°C, 1.8 M ammonium citrate pH 7.0; space group P6_(3)22, two molecules in each asymmetric unit; 1.80 Å

With “SspA C314S mutant from Vibrio cyclitrophicus FF75 (from UniProt A0AAN0N811 1-211) (enzyme)” as the substance, how does the stoichiometry N read?
The stoichiometry N was 2.
